Laboratory results: patent US20240100134

Assays:
[1] = system: recombinant human plasminogen (not fused to Fc, wild-type)
[2] = system: recombinant plasminogen-linker-Fc fusion (human plasminogen, QA linker GQAGQAS, Fc)
Chain of recombinant plasminogen-linker-Fc fusion (human plasminogen, QA linker GQAGQAS, Fc) (chain, as listed by the source): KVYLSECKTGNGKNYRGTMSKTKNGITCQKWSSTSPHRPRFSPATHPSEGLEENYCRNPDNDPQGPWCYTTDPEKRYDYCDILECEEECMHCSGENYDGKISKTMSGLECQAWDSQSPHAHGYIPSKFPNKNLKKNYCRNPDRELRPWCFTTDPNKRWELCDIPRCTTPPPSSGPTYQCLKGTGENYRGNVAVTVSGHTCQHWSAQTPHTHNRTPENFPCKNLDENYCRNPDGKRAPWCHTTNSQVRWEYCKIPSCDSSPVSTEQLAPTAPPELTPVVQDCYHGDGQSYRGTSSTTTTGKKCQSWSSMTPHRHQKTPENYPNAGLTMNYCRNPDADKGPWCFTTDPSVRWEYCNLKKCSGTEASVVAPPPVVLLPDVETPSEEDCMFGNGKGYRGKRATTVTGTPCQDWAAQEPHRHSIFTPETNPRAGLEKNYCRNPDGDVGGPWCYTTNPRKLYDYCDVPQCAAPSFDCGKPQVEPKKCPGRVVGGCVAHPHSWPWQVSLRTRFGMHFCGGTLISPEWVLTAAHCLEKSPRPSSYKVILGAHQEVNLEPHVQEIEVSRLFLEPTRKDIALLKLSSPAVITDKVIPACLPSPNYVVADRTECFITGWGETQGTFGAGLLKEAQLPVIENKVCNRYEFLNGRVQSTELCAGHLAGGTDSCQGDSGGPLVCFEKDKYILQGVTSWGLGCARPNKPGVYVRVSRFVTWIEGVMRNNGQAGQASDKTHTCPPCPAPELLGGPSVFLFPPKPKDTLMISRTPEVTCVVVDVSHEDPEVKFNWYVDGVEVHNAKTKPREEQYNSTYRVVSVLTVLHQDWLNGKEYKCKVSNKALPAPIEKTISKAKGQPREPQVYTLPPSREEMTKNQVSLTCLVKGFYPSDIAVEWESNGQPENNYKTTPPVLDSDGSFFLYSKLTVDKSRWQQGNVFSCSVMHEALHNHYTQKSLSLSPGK

Chain of recombinant human plasminogen (not fused to Fc, wild-type) (chain, as listed by the source): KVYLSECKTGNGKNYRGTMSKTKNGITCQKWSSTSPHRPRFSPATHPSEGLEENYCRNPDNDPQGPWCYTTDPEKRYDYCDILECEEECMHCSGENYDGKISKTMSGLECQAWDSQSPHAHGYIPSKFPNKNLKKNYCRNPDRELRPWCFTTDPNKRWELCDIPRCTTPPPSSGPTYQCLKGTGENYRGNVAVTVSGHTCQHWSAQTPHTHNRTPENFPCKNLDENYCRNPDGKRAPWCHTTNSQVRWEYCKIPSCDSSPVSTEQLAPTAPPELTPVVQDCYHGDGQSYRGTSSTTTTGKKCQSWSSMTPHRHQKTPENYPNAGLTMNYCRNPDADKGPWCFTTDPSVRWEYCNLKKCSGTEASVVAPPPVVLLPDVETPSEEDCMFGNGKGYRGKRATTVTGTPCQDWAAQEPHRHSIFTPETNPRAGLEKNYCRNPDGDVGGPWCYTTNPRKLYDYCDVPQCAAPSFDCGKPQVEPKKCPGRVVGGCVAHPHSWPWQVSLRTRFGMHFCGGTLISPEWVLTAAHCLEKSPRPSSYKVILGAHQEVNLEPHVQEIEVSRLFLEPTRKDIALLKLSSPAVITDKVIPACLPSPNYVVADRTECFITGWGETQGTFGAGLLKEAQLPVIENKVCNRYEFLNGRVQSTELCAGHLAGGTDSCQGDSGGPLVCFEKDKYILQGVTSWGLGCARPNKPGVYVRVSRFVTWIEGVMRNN

## urokinase-type plasminogen activator
[1]
  Michelis-Menten analysis of activation (KM and Vmax), 10 mM EACA: the kinetics of rPlg and rPlg-Fc activation are similar (as indicated by the KM and Vmax)
  activation measured by the hydrolysis of plasmin fluorogenic substrate H-Ala-Phe-Lys-AMC: In the presence of tPA or uPA, comparable hydrolytic activity for rPlg and rPlg-Fc is observed
[2]
  Michelis-Menten analysis of activation (KM and Vmax), 10 mM EACA: the kinetics of rPlg and rPlg-Fc activation are similar (as indicated by the KM and Vmax)
  activation measured by the hydrolysis of plasmin fluorogenic substrate H-Ala-Phe-Lys-AMC: In the presence of tPA or uPA, comparable hydrolytic activity for rPlg and rPlg-Fc is observed
